Assays:
[1] = molecular target: T1, His-HupS (nonacetylated, -AcP) (Streptomyces venezuelae) (UniProt F2R5C9); experiment: BLI; conditions: 1 mM Mg2+; BLI: 100 mM Tris-HCl pH 8.0, 200 mM NaCl, 1 mM MgCl2, 0.005% Tween-20, 0.1 mg/ml BSA, 30 C; EMSA: 50 mM Tris-HCl pH 8.0, 150 mM NaCl, 0.02% Tween-20, 10 mM Mg …
T1 sequence: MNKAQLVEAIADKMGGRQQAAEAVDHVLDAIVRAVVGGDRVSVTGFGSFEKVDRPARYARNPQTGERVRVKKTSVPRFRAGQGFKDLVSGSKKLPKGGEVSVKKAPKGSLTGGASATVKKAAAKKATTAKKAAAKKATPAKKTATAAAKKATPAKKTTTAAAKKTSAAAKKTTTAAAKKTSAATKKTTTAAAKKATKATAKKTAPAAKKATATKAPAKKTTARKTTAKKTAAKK

[2] = molecular target: T2, His-HupS acetylated in vitro (+AcP) (Streptomyces venezuelae) (UniProt F2R5C9); experiment: BLI; conditions: 1 mM Mg2+; lysine-acetylated; BLI: 100 mM Tris-HCl pH 8.0, 200 mM NaCl, 1 mM MgCl2, 0.005% Tween-20, 0.1 mg/ml BSA, 30 C; EMSA: 50 mM Tris-HCl pH 8.0, 150 mM NaCl, 0.02% Tween-20, 10 mM Mg …
T2 sequence: T1 sequence

Substance	Kd [1]	Kd [2]
two-ends biotinylated dsDNA 300 bp	0.0113 µM	0.02 µM
one-end biotinylated dsDNA 300 bp	0.0174 µM	0.0286 µM

Source: PMC11229371, “The activity of CobB1 protein deacetylase contributes to nucleoid compaction in Streptomyces venezuelae spores by increasing HupS affinity for DNA” (Nucleic Acids Research, 2024)
